Measurements published in patent US20100210517A1.
Positions of bridges follow the written chain, without caps; N, C: chain ends. No end group written: not given here.

Molecular target: recombinant human LRP1 ligand binding cluster II (amino acids 786-1165, C-terminal Fc) (human)
Experiment: solid-phase binding assay, receptor coated on plate

recombinant human LRP1 ligand binding cluster II (amino acids 786-1165, C-terminal Fc) (human), sequence (Q07954 786-1165): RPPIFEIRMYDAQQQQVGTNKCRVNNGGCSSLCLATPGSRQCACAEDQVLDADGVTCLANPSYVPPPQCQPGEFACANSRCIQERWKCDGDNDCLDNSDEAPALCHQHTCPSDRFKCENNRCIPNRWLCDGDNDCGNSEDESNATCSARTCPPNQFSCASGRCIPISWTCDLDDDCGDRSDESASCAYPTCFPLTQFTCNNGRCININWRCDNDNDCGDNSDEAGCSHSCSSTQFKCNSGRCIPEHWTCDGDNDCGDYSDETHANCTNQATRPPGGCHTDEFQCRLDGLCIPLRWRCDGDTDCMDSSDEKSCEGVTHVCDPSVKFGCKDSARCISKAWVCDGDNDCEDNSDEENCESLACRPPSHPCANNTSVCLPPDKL

| Kd | Binder |
| --- | --- |
| 21 nM | mRAP-14c (disulfide 1-60) peptide: CEAKIEKHNHYQKQLEIAHEKLRHAESVGDGERVSRSREKHALLEGRTKELGYTVKKHGC |
| 3.5 nM | Heptide (disulfide 1-67 (inferred)) peptide: CGKHFEAKIEKHNHYQKQLEIAHEKLRHAESVGDAERVSRSREKHALLEGRTKELGYTVKKHLQDACG |
| 4 to 6 nM | mRAP-8c (disulfide 1-67 (inferred)) peptide: CGKHFEAKIEKHNHYQKQLEIAHEKLRHAESVGDGERVSRSREKHALLEGRTKELGYTVKKHLQDGC |
